Patent US8728470B2, “CAB molecules” (Danisco US Inc., priority 2004, dated 2014)

Assay: Immunogenicity after IV or IP administration to normal mice (IgG1 antibodies)
Format: in vivo, CB6F1/J mice
Conditions: 20 ug in alum, days 1, 8 and 15, FIG. 20
Method: CAB1.11i and CAB1.2i were diluted in PBS to 200 ug/ml. For the i.p. group (group 5), CAB1.11i was diluted in a 1:1 solution of alum to PBS (resulting concentration=200 ug/ml) and vortexed rapidly for 10 minutes. The mixture was left at 2-8° C. for a minimum of 15 minutes. The mixture was revortexed 1 minute prior to injection into mice. The dosing solution was stored on ice prior to administration.
Wt BLA was diluted in PBS to 400 ug/ml. For the i.p. group, group 4, wt BLA was diluted in a 1:1 solution of alum to a PBS with resulting concentration=200 ug/ml and vortexed rapidly for 10 minutes. The mixture was left at 2-8° C. for a minimum of 15 minutes. The mixture was then revortexed 1 minute prior to injection into mice. The solution was stored on ice prior to administration.
Study design is outlined in Table 7. Female CB6F1/J mice were used for each group. Mice undergoing i.v. injections were placed under a heating lamp for approximately 3 minutes to vasodilate the tail vein, and then placed in a mouse restrainer for the i.v. injection. On days 1, 8 and 15, three mice of each strain each were administered CAB1.2i (20 ug), CAB1.11i (20 ug), or wt BLA (20 ug) intravenously, or wt BLA (20 ug) or CAB1.11i (20 ug) complexed with alum administered by an i.p. injection. Dose concentrations and volumes are outlined in Table 8. Dose concentrations were formulated based on a 100 uL injection/mouse. […]

B1: beta-lactamase: unmodified beta-lactamase protein, SEQ ID NO:11 (protein)
chain: TPVSEKQLAEVVANTITPLMKAQSVPGMAVAVIYQGKPHYYTFGKADIAANKPVTPQTLFELGSISKTFTGVLGGDAIARGEISLDDAVTRYWPQLTGKQWQGIRMLDLATYTAGGLPLQVPDEVTDNASLLRFYQNWQPQWKPGTTRLYANASIGLFGALAVKPSGMPYEQAMTTRVLKPLKLDHTWINVPKAEEAHYAWGYRDGKAVRVSPGMLDAQAYGVKTNVQDMANWVMANMAPENVADASLKQGIALAQSRYWRIGSMYQGLGWEMLNWPVEANTVVETSFGNVALAPLPVAEVNPPAPPVKASWVHKTGSTGGFGSYVAFIPEKQIGIVMLANTSYPNPARVEAAYHILEALQ
modifications: beta-lactamase protein
Question: For B1, which “antibody response (anti-test article IgG1)” value is on record?
Answer: greatest antibody response
